Changes are numbered by the printed parent chain.
B1: LK-RB2-6 (antibody, human IgG4 S228P, kappa, V domains shown)
VH: QIQLVQSGPELKKPGETVKISCKASGYTFTTYGMSWVKQAPGKGLEWMGWINIYSGVPTYADDFKGRFAFSLETSASTAYLQINNLKNEDTATYFCARRGDYDSFYFDYWGQGTTLTVSS
VL: DIVMSQSPSSLAVSVGEKVTVSCKSSQSLLYSYNQKNYLAWYQQKPGQSPKLLIYWSSTRESGVPDRFTGSGSGTDFTLTISSVKAEDLAVYYCQQCYNYPYTFGGGTKLEIKR
B2: LK-RB1-32 (antibody, human IgG4 S228P, kappa, V domains shown)
VH: QVQLQQSGAELAKPGASVKLSCTASGYTFTTYLMHWVKQRPAQGLEWIGYINPSNDFTKYNQKFKDKATLTADTSSSTAYMQLNSLTFEDSAVYYCARNSDYDPSYWGQGTTLTVSS
VL: DIQMTQSPASLSVSVGETVTITCRASENIYSSLAWYQQKQGKSPQLLVYAATNLADGVPSRFSGSGSGTQYSLKINSLQSEDFGNYYCQHFWGTWAFGGGTKLEIKR
B3: LK-RB1-26 (antibody, human IgG4 S228P, kappa, V domains shown)
VH: QVQLKESGPGLVAPSQSLSITCTVSGFSLTSYGVSWVRQPPGKGLEWLGIIWGDGSTNYHSALISRLSISKDNSKSQVFLKLNSLQTDDTATYYCAKPNWDYYAMDYWGQGTSVTVSS
VL: DIQMTQTTSSLSASLGDRVTISCRASQDISNFLNWYQQKPDGTFKLLISYTSTLHSGVPSRFSGSGSGTDYSLTISNLEQEDVATYFCQQGNTLPLTFGAGTKLALKR
B4: LK-RB1-29 (antibody, human IgG4 S228P, kappa, V domains shown)
VH: B3 VH with S17N, S19A, S31N, Y32S, P40S, S56N, A91G, M105L
VL: DIQMTQTASSLFASLGDRVTISCRASQDISNYLNWYQQKPDGSIKLLISYTSRLHSGVPSRFSGSGSGTDYSLSISNLEQEDIATYFCQQGISLPCTFGGGTKLEVNR
B5: LK-RB1-30 (antibody, human IgG4 S228P, kappa, V domains shown)
VH: B3 VH with V37I, I50V, S56N, N99S
VL: VIQMTQTTSSLSASLGDRVTISCRASQDISNYVNWYQQRPDGTVKLLISYTSRLHSGVPSRFSGSGSGTDYSLTITNLEQEDIATYFCQQGITLPCTFGGGTKLEINR
B6: LK-RB1-34 (antibody, human IgG4 S228P, kappa, V domains shown)
VH: QVQLQQSGAELVKPGASVKLSCKASGYTFTEYTIHWVKQRSGQGLEWIGWFYPGSDSIKYNEKFKDKATLTADKSSSTVYMELSRLTSEDSAVYFCSRHEGPYFTSQYYFDYWGQGTTLTVSS
VL: DILLTQSPAILSVSPGERVSFSCRASRYIGTSIHWYQQRTNGSPRLLIKYASESISGIPSRFSGSGSGTDFTLSINSVESEDIADYYCQQSNTWPLTFGAGTKLELKR
B7: LK-RB1-37 (antibody, human IgG4 S228P, kappa, V domains shown)
VH: QVQLQQPGAELVKPGASVKLSCKASGYTFTSYWMHWVKQRPGRGPEWIGRIDPNSGYARYNEKFKNKATLTADKPSSTADMHLSSLTSEDSAVYYCTRSFITTAEWFFDVWGTGTTVTVSS
VL: B6 VL with R27Q, Y28S, T40R, A51T, T93S, L96H, A100G
B8: LK-RB1-42 (antibody, human IgG4 S228P, kappa, V domains shown)
VH: QVQLQQPGAELVKPGTSVKLSCKASGYSFISYWVYWVKQRPGQGLEWIGMIHPNSGSTNFNEKFRYKATLTVDKSSSTAYIQLSSLTSEDSAVYYCGRSDDGYPYHAMDSWGQGTSVTVSS
VL: DIVMTQSQKFMSTSVGDRVSVTCKASQNVGTNVAWYQQKPGQSPKALIYSASYRFSGVPDRFTGSGSGTDFTLTIGNVQSEDLAEYFCHQYKNYPLTFGGGTKLEIKR
B9: LK-RB2-32 (antibody, human IgG4 S228P, kappa, V domains shown)
VH: DVQLQESGPGLVKPSQSLSLTCSVTGYSITSGYYWNWIRQFPGNKLEWMGYISFDGSNHYNPSLRNRISITRDTFKNQFFLKLNSVTTEDTATFYCTRRDYNWFAYWGQGTLVTVSA
VL: DIVLTQSPVTLSVTPGDSVSLSCRASQNINKNLHWYQQRSHESPRLLIKYVSQSISGIPSRFSGSGSGTDFTLSINSVETEDFGMYFCQQSNSWPLTFGAGTKLELRR
B10: LK-RB1-35 (antibody, human IgG4 S228P, kappa, V domains shown)
VH: DVQLQESGPGLEKPSQSLSLTCSVTGYSITRGYQWNWIRQFPGNKLEWMGYISYDGSNNYNPSLKNRISITRDASKNQFFLKLNSVTTEDTATYYCARRSYNSIDYWGQGTTLTVSS
VL: B9 VL with V9A, N28S, N30S, K31S, R39K, V51A, R107K
B11: LK-RB1-36 (antibody, human IgG4 S228P, kappa, V domains shown)
VH: B10 VH with T71I, A74T
VL: B9 VL with V9A, N28S, N30S, K31N, R39K, V51A, R107K
B12: LK-RB1-44 (antibody, human IgG4 S228P, kappa, V domains shown)
VH: QVQLQQSGTELAKPGASVKLSCKASGYTFTNYWMHWIKQRPGQGLEWIGYVHPTSDYTKYNQKFKDKATLTADKSSSTAYMQLNSLTYEDSAVYYCTRSSLYDTNYVFDSWGQGTTLTVSS
VL: DILLTQSPAILSVSPGERVSFSCRASQSIGRSIHWFQQRTNGSPSLLIKYASESISGIPSRFSGGGSGTDFTLSISNVESEDIADYYCQQSNNWPFTFGSGTKLEIKR
B13: LK-RB1-45 (antibody, human IgG4 S228P, kappa, V domains shown)
VH: B12 VH with K13R, Y32F, H52N
VL: B12 VL with F36Y, S45R
B14: LK-RB1-38 (antibody, human IgG4 S228P, kappa, V domains shown)
VH: DVQLQESGPGLVQPSQSLSLTCSVTGYSITSGYQWNWIRQLPGNKLEWMAYISFDGSNNYNPSLKNRISITRDTSKNQFFLKLKSVTTEDTATYYCARRDYDGVAYWGQGTLVTVSA
VL: EIVLTQSPATLSVTPGDRVSLSCRASQNISNYLHWYQQKSHGSPRLIIKYASQSISGIPSRFSGSGSGTDFTLSINSVETEDFGMYFCQQSNSWPLTFGAGTKLELKR
B15: LK-RB1-27 (antibody, human IgG4 S228P, kappa, V domains shown)
VH: QVQLQQSGPELVKPGASVRMSCKASGYTFTSHYIHWMKQRPGQGLEWIGWIYPGDGHTKYHEKFKDRATLTADTSSITAYMRLSSLTSEDSAIYYCVYYSDSWFPYWGQGTLVTVSA
VL: DIQMTQSPASLSVSVGETVTITCRASENIYSNLAWYQQKQGKSPHLLVYAATNLADGVPSRFSGSGSGTQYSLKINSLQSEDFGNYYCQHFWGSPWTFGGGTKLEIKR
B16: LK-RB1-43 (antibody, human IgG4 S228P, kappa, V domains shown)
VH: EFQLQQSGPELMKPGASVKISCKASGYSFTDYNMNWVKQSNGKSLEWIGIIDPNYGTTTYNQKFKGRATLTVDQSSNTAYMQLNSLTSEDSAVYYCAREGRYSWFAYWGQGTLVTVSA
VL: B15 VL with A9G, S10A, Y30N, H45Q, N85S, Y87H, S94T, W96F, G100S
B17: 12D12 (antibody, human IgG4 S228P, kappa, V domains shown)
VH: QVQLQQPGAELVKPGASVRMSCKASGYTFTSYWVHWVKQRPGQGLEWIGVIDPSDSYTSYNQNFKGKATLTVDTSSKTAYIHLSSLTSEDSAVYFCARGERYDGDYFAMDYWGQGTSVTVSS
VL: B15 VL with Q3V, H45Q, G66R, N85T, G93N, S94T, W96R
B18: LK-RB1-28 (antibody, human IgG4 S228P, kappa, V domains shown)
VH: B15 VH with A16T, R19K, E46D, D66G, R67K, R82Q, S85L, I93V
VL: B15 VL with H45Q, Y87F
B19: LK-RB1-46 (antibody, human IgG4 S228P, kappa, V domains shown)
VH: EVQLQQSGPELVKPGASVKISCKTSGYTFTDYYMNWVKQSHGKSLEWIGDIYPINGDISYNQKFKGKATLTVDKSSSTVYMEIRSLTYEDSAVYYCARLAQTTSGGFDYWGQGTTLTVSS
VL: DIVLTQSPTSLAVSLGQRAIISCKASQSVSFAGTSLMHWYQQKPGQQPKLLIYRASNLKAGVPTRFSGSGSRTDFTLNIHPVEEDDAATYYCQQSREYPMYTFGGGTKLEIKR
B20: LK-RB1-25 (antibody, human IgG4 S228P, kappa, V domains shown)
VH: QIQLVQSGPELKKPGETVKISCKASGYTFTSYGMNWMKQAPGEGLKWMGWINTYSGVPTYADDFKGRFAFSLETSATTVYLQINNLKNEDKATYFCARRGRDSVVGHFDVWGTGTTVTVSS
VL: DIVMTQSHKFMSTSVGDRVSITCKASQDVNTAVAWYQQKPGQSPKLLIYWASTRHTGVPDRFTGSGSGTDFTLTISSVQAEDLALYYCQQHYTIPFTFGSGTKLEIKR
B21: LK-RB1-24 (antibody, human IgG4 S228P, kappa, V domains shown)
VH: QVQLQQPGAELVNPGTSVNLSCKASGYTFTGYWMHWVKQRPGQGLEWIGMIHPNNGGTIYNERFNGKATLTVDRSSTTAYIQLSSLTSEDSAVYYCAYWDLDYWGQGTTLTVSS
VL: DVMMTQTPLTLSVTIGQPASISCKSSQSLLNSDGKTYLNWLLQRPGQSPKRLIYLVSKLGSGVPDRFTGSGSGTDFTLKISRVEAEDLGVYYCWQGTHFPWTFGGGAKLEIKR
B22: LK-RB1-55 (antibody, human IgG4 S228P, kappa, V domains shown)
VH: EVKLVESGGGLVQPGGSLKLSCAASGFTFSDYYMYWVRQTPEKRLEWVAYISNGGDITFYPDTVKGRFTISRDNARSTLYLQMSRLKSEDTAIYYCASATTEVGAMDHWGQGTSVTVSS
VL: DIVMTQSQKFMSTTVGDRVSITCKASQNVGTAVAWYQQKPGKSPKLLIYAASNRYTGVPDRFTGSGSGTDFTLTISNMQSEDLADYFCQQYSSYRTFGGGTNLEIKR
B23: LK-RB1-48 (antibody, human IgG4 S228P, kappa, V domains shown)
VH: B22 VH with D56G, T58S, R76K, S77N, T101K, H108Y
VL: B22 VL with M11L, K42Q, L46I, A50S, N102K
B24: LK-RB1-57 (antibody, human IgG4 S228P, kappa, V domains shown)
VH: B22 VH with M83T
VL: B22 VL with M78V, N102S

Experiments:
[1] = biological target: T1, human LILRB1 expressed on CHOK1 cells (CHOK1-hLILRB1) (human, UniProt Q8NHL6 24-650); assay: FACS binding to CHOK1-hLILRB1 cells
T1 construct: whole, on cells; also called CHOK1-LILRB1

[2] = biological target: T2, human LILRB2 expressed on CHOK1 cells (CHOK1-hLILRB2) (human, UniProt Q8N423 22-597); assay: FACS binding to CHOK1-hLILRB2 cells
T2 construct: whole, on cells; also called CHOK1-LILRB2

human LILRB1 = biological target: T3, human LILRB1 (human, UniProt Q8NHL6 24-458, limits assumed); assay: Octet off-rate ranking;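 further: antibody dissociation rate constants against cynomolgus LILRB2 plus human LILRB1, LILRB2, LILRA1 and LILRA2, measured on an Octet instrument to rank binding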
T3 construct: also called hLILRB1
T3 sequence (Q8NHL6 24-458 limits assumed): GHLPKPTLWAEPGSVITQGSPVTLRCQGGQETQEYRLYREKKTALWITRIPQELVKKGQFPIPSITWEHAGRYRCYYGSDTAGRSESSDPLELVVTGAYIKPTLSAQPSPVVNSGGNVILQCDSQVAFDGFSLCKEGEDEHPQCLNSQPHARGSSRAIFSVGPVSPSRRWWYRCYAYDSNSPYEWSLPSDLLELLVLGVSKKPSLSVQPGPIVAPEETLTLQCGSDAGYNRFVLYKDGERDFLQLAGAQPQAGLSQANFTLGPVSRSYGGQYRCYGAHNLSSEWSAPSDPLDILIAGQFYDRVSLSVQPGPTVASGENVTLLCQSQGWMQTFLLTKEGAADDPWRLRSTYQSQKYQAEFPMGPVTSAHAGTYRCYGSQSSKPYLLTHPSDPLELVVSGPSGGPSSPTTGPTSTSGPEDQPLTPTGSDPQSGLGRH
From the text: Binding affinity of anti-LILRB1 and anti-LILRB2 antibodies against human LILRB1, LILRB2, LILRA1, LILRA2 and cynomolgus LILRB2 was ranked by measuring dissociation rate constant (Kdis) using the Octet system.

T1 sequence (Q8NHL6 24-650): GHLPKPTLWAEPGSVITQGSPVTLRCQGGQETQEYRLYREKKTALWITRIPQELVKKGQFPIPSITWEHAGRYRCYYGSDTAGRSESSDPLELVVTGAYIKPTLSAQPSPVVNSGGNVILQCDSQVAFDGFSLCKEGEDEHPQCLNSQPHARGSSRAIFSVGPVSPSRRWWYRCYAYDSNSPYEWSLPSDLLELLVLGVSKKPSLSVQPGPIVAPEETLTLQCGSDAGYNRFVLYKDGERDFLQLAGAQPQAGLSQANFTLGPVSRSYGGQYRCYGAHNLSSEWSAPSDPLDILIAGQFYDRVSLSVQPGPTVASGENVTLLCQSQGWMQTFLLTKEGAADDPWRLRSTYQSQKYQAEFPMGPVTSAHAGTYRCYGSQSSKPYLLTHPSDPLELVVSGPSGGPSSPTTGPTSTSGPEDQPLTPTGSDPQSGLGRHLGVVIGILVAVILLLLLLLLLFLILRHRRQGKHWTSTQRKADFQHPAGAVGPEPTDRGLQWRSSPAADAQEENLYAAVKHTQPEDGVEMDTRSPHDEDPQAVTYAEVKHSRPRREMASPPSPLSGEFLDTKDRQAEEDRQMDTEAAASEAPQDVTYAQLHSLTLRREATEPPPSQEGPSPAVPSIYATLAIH
T2 sequence (Q8N423 22-597): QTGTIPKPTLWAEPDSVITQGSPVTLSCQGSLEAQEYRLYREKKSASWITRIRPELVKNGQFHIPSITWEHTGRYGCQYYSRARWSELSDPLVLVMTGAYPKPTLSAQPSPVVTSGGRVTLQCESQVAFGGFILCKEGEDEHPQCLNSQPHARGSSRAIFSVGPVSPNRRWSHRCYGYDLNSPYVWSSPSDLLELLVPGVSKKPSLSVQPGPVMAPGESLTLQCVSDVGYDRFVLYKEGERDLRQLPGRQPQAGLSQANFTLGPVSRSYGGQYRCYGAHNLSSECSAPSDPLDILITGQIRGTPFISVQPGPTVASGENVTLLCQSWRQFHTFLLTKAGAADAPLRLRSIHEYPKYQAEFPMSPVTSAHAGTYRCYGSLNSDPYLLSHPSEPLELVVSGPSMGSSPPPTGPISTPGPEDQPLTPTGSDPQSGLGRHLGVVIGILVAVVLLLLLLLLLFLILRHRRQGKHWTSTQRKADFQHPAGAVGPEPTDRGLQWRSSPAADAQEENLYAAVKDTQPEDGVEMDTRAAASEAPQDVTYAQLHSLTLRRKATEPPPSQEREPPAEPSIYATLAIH

Binder	koff (human LILRB1)	further results
B1	–	binding result [1]: no binding; EC50 [2]: 0.66 nM
B2	3.66e-05 s⁻¹	–
B3	0.000155 s⁻¹	–
B4	8.11e-05 s⁻¹	–
B5	6.05e-05 s⁻¹	–
B6	0.000222 s⁻¹	–
B7	3.91e-05 s⁻¹	–
B8	0.000139 s⁻¹	–
B9	–	EC50 [1]: 4.54 nM
B10	0.00116 s⁻¹	–
B11	0.00121 s⁻¹	–
B12	0.000559 s⁻¹	–
B13	0.000611 s⁻¹	–
B14	0.000532 s⁻¹	–
B15	0.000112 s⁻¹	–
B16	0.000364 s⁻¹	–
B17	0.000338 s⁻¹	–
B18	6.28e-05 s⁻¹	–
B19	0.000739 s⁻¹	–
B20	9.03e-05 s⁻¹	–
B21	0.000987 s⁻¹	–
B22	< 1e-07 s⁻¹	–
B23	8.47e-06 s⁻¹	–
B24	< 1e-07 s⁻¹	–
